In publication PMC2884976 (The Journal of General Virology, 2007):

B1: GST–M1 middle domain fusion protein (domain or fragment)
chain: GDPNNMDKAVKLYRKLKREITFHGAKEISLSYSAGALASCMGLIYNRMGAVTTEVAFGLVCATCEQIADSQHRSHRQM
notes: not shown: GST, N-terminal, kept
B2: GST–M1 M+C domain fusion protein (domain or fragment)
chain: GDPNNMDKAVKLYRKLKREITFHGAKEISLSYSAGALASCMGLIYNRMGAVTTEVAFGLVCATCEQIADSQHRSHRQMVTTTNPLIRHENRMVLASTTAKAMEQMAGSSEQAAEAMEVASQARQMVQAMRTIGTHPSSSAGLKNDLLENLQAYQKRMGVQMQRFK
notes: as for B1

How the values were obtained:
Assay in all cases: pull-down
purified NP = purified NP (influenza A virus A/PR/8/34 (PR8), UniProt P03466 1-498); conditions: both partners purified
Sequence of purified NP (P03466 whole entry): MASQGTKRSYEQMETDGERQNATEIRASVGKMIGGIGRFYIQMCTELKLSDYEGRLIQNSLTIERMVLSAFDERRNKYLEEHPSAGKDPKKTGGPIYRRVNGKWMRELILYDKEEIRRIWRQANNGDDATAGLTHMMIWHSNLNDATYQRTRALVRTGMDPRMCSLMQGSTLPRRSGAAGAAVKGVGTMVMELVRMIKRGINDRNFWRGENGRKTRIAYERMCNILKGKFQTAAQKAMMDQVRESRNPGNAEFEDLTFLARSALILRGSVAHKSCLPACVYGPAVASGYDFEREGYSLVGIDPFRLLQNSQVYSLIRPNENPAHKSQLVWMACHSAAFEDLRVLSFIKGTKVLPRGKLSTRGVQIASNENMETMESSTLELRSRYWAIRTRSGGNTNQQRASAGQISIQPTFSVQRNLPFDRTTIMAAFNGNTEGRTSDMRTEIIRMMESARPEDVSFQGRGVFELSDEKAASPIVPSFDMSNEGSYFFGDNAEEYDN

[1] = target: B1; conditions: one partner purified
[2] = target: T1, GST–M1 C-terminal domain fusion protein (influenza A virus A/PR/8/34 (PR8), UniProt P03485 165-252); conditions: one partner purified
T1 construct: Cloned into pGEX-3X; not shown: GST, N-terminal, kept

[3] = target: B2; conditions: one partner purified

Binder	binding result (purified NP)	binding activity relative to full-length GST–M1 [1] [fold]	binding activity relative to full-length GST–M1 [2] [%]	binding activity relative to full-length GST–M1 [3] [fold]
B1	binds	–	–	–
GST–M1 N+M domain fusion protein (domain or fragment, not shown: GST, N-terminal, kept) MSLLTEVETYVLSIIPSGPLKAEIAQRLEDVFAGKNTDLEVLMEWLKTRPILSPLTKGILGFVFTLTVPSERGLQRRRFVQNALNGNGDPNNMDKAVKLYRKLKREITFHGAKEISLSYSAGALASCMGLIYNRMGAVTTEVAFGLVCATCEQIADSQHRSHRQM	binds	–	–	–
B2	binds	–	–	–
untagged WT radiolabelled M1, in vitro translated (natural protein) MSLLTEVETYVLSIIPSGPLKAEIAQRLEDVFAGKNTDLEVLMEWLKTRPILSPLTKGILGFVFTLTVPSERGLQRRRFVQNALNGNGDPNNMDKAVKLYRKLKREITFHGAKEISLSYSAGALASCMGLIYNRMGAVTTEVAFGLVCATCEQIADSQHRSHRQMVTTTNPLIRHENRMVLASTTAKAMEQMAGSSEQAAEAMEVASQARQMVQAMRTIGTHPSSSAGLKNDLLENLQAYQKRMGVQMQRFK	–	2	~40	2
